No end group written: not given here.
Tests used:
[1] = molecular target: T1, urokinase (Homo sapiens, UniProt P00749); test: UV/Vis-absorption spectroscopy measurement of uPA activity with nanoparticle-nanoparticle assembly; format: biochemical; conditions: PBS, 37° C.
T1 construct: purchased Innovative Research, Inc., Novi, Mich
Procedure: In this procedure, UV/Vis-Absorption spectroscopy was used to measure the activity of uPA. All chemicals and solvents were purchased from Fisher/Acros (Pittsburgh, Pa.), unless otherwise noted. A nanoparticle-nanoparticle assembly was prepared using citrate-stabilized gold nanoparticles (Sigma-Aldrich, St. Louis, Mo.) with a 10 nm diameter and an oligopeptide with the following sequence: CGGGSGRSAGGGC (SEQ ID NO: 35) (GenScript, Piscataway, N.J.). First, 1 mg of the nanoparticles was suspended in 25 ml of tetrahydrofuran (THF) containing 1.0×10^−3 M of glycine. The microheterogeneous solution was heated under pressure (100 psi) and argon-atmosphere to 200° C. for 5 hours. The reaction was carried out using a High-Pressure Reactor (available from Parr Instruments, Moline, Ill.). Digestive ripening decreased the Au-nanoparticle diameter to 4-5 nm. The nanoparticles were then removed from the solution by ultracentrifugation at 30,000 rpm and then resuspended in THF. The procedure was repeated 10 times to remove all non-bonded glycine.
Next, 0.1 mg of the oligopeptide was added to the Au-nanoparticles in 1.0 ml of anhydrous THF, followed by stirring for 24 hours. The oligopeptide and nanoparticles were precipitated by centrifugation at 30,000 rpm and then resuspended in THF. This procedure was repeated 10 times. The linked Au—Au nanoparticle assemblies were then dissolved in phosphate buffer (PBS; pH=7.02), precipitated by centrifugation at 20,000 rpm and resuspended again in PBS.
The reported absorption coefficient at the maximum absorption of the plasmon is ε=7.66×10^9 M^−1 cm^−1. This absorption coefficient was used to estimate the concentration of the Au—Au nanoparticles at […].
The Au—Au nanoparticles in PBS solution were then added to a quartz cuvette (˜3.0 mL). The solution was heated to 37° C. for 15 minutes. Next, 1×10^−8 mol of urokinase in 0.050 ml of PBS (Innovative Research, Inc., Novi, Mich.) was added to the cuvette. […]

[2] = molecular target: T1, urokinase; test: FRET-based sensor emission spectra in the presence of urokinase; format: biochemical; conditions: assembly 1×10^−5 M in PBS, about 1×10^−8 M urokinase, 0-6 minutes
Procedure: For the FRET-Based Sensor, five Zn-TCPP porphyrins were attached to one central stealth-protected Fe/Fe3O4 nanoparticle, and then a non-metalated TCPP porphyrin was attached to the central nanoparticle, using the procedure described below.
To prepare the stealth-protected Fe/Fe3O4-nanoparticles, 35 mg of dopamine-tetraethylene glycol ligand were dissolved in 5 ml THF. Next, 11.0 mg of Fe/Fe3O4-nanoparticles were added and sonicated at room temperature for 1 hour. […] The solid was then collected with a magnet and solvent was decanted carefully. The solid was washed with THF (3×3 ml). After drying under vacuum for 2 hours, 10.0 mg of stealth-protected nanoparticle product was obtained.
The oligopeptide linker was then attached to the metalated porphyrin. […]
The emission spectra of the nanoplatform assembly (1×10^−5 M) in PBS in the presence of about 1×10^−8 M urokinase is depicted in FIG. 4, at 0 (A), 2 (B), 4 (C), and 6 minutes (D). […] The reason for the observed non-linear behavior can be found in the high fluorescence quantum yield of the untethered, non-metalated TCPP. […]
In FIG. 5, the ratios of the integrals of the fluorescence bands shown at λ1=607 nm, λ2=654 nm, and λ3=718 nm are plotted versus the mol percent of released TCPP (as measured by HPLC using an Agilent workstation (HP 1050) equipped with an optical detection system). […]

[3] = Fluorescence quantum yield of TCPP; format: physicochemical; conditions: untethered, non-metalated TCPP
Procedure: The emission spectra of the nanoplatform assembly (1×10^−5 M) in PBS in the presence of about 1×10^−8 M urokinase is depicted in FIG. 4, at 0 (A), 2 (B), 4 (C), and 6 minutes (D). […] The reason for the observed non-linear behavior can be found in the high fluorescence quantum yield of the untethered, non-metalated TCPP. We estimated Φ=0.082, which is approximately eight times higher than in the tethered state, when the large porphyrin-concentration in the sphere around the Fe/Fe3O4-nanoparticle leads to increase FRET and, consequently, radiation-less deactivation of the excited states.

[4] = molecular target: T1, urokinase; test: Fluorescence/phosphorescence assay of uPA activity with chromophore-chromophore assembly; format: biochemical; conditions: excitation of pyrene at 280 nm, 37° C., about 1×10^−8 mol urokinase, 0-15 minutes
Procedure: In this example, fluorescence/phosphorescence assays were used to measure activity of uPA. A chromophore-chromophore assembly was prepared using the peptide sequence SRSRSRSRSRSGRSAGGGC (SEQ ID NO: 18) (GenScript) as a spacer between a pyrene fluorophore and a coumarin acceptor. All chemicals and solvents were purchased from Fisher/Acros (Pittsburgh, Pa.), unless otherwise noted. The assembly was prepared by dissolving 0.00010 mol of coumarin in THF at room temperature. Next, 0.00012 mol of 1-ethyl-3-(3-dimethyllaminopropyl)carbodiimide (EDC) were added as solid under argon-atmosphere and allowed to react for 5 hours. Then, the oligopeptide linkage was attached to the coumarin by adding to the reaction 0.00010 mol of the oligopeptide dissolved in 1 ml bidest. (double purified) water, followed by stirring at room temperature for 24 hours under argon atmosphere. Next, 0.0020 mol of mercaptopyrene was added as a solid to the solution, and completely dissolved within 5 minutes. The solution was continuously stirred under ambient conditions for another 24 hours. […]
The spectral shift from the assay is depicted in FIG. 3. The changes in the emission spectra were measured using a spectrofluorometer (ISA-SPEX, Fluoromax-2; ISA, Inc., Edison, N.J.). Upon photoexcitation of the pyrene at 280 nm, FRET occurs, which causes the attached coumarin to emit most of the phosphorescence/luminescence. […]

Compound: coupled pair of gold nanoparticles: 4-5 nm gold nanoparticles linked by oligopeptide CGGGSGRSAGGGC (SEQ ID NO: 35) (cysteine pairing not given here; also: attached to gold nanoparticles)
- maximum of the gold plasmon absorption after urokinase cleavage ([1]; 1×10^−8 mol urokinase): 517 nm
- time for the shift of the plasmon absorption maximum ([1]; 1×10^−8 mol urokinase): ≤ 180 s
- maximum of the gold plasmon absorption before urokinase cleavage ([1]; before adding urokinase): 523 nm

Compound: FRET-Based Sensor: five Zn-TCPP porphyrins and a non-metalated TCPP attached to one stealth-protected Fe/Fe3O4 nanoparticle via CGGGSGRSAGGGC linkers (cysteine pairing not given here; also: links Zn-TCPP porphyrins and TCPP to Fe/Fe3O4 nanoparticle, attachment points not given here)
- fluorescence band at λ1=607 nm in the presence of urokinase [2]: distinct decrease

Compound: O=C(O)c1ccc(-c2c3nc(c(-c4ccc(C(=O)O)cc4)c4ccc([nH]4)c(-c4ccc(C(=O)O)cc4)c4nc(c(-c5ccc(C(=O)O)cc5)c5ccc2[nH]5)C=C4)C=C3)cc1 [TCPP, tetracarboxy-phenyl-porphyrin]
- fluorescence quantum yield Φ [3]: 0.082

Compound: chromophore-chromophore assembly: pyrene fluorophore and coumarin acceptor linked by peptide SRSRSRSRSRSGRSAGGGC (SEQ ID NO: 18) (also: pyrene fluorophore and coumarin acceptor attached)
- coumarin emission (FRET) after adding urokinase [4]: decreases with time

Source: patent US8969027B2, “Protease assay” (priority 2008, dated 2015)
